Reference: patent US20230303666A1 (published 2023)

Target: recombinant RBD (ThermoFisher, RP-87678) (SARS-CoV-2, UniProt P0DTC2 319-541)

B1: SR6v15 with GST tag (VHH, not shown: a dimerising Fc or GST)
VHH: EVQLVESGGGLVQAGDSLRLSCAASGDSYILWRMGWFRQAPGKEREFVAAISLDGQFTNYADSVRGRFSISADSAKYTVYLQMNSLKPEDTAVYYCAALPFLDYWGQGTQVTVSS
Binder B1 has a Kd of 2.18 nM.
